We go through one molecule from US20210340271A1 (PROMAB BIOTECHNOLOGIES, published 2021).

In assay [1] the target is negative unrelated control protein. Nature of the assay: ELISA, negative control antigen. For orientation: In an ELISA, binding on a coated surface is turned into a signal by an enzyme label.
The target in assay [2] is T1, CD18 on HEK293-CD18 cells (UniProt P05107 23-769).
T1 construct: whole, on cells; also called negative control protein CD18
Put plainly: immunofluorescent staining of transfected HEK293 cells.

T1 sequence (P05107 23-769 limits assumed): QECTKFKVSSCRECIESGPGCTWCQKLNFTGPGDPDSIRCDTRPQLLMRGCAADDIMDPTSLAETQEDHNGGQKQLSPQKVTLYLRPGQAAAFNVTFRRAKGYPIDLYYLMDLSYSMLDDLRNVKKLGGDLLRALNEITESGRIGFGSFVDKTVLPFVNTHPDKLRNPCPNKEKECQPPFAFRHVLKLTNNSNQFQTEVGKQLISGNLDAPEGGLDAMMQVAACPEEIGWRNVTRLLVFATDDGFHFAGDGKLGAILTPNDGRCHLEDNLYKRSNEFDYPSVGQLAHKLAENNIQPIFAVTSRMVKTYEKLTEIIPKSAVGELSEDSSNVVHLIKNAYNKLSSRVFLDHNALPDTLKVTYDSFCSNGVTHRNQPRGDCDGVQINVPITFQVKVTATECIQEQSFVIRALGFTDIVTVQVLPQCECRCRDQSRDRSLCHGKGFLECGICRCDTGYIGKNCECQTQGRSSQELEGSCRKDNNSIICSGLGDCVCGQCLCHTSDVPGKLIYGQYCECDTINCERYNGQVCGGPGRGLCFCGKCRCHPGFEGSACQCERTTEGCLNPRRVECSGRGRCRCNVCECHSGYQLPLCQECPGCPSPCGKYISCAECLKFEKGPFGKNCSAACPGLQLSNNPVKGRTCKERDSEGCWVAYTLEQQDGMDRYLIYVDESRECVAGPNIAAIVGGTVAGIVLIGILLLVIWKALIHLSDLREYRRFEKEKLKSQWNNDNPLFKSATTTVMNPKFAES

B1: mouse monoclonal anti-human CD37 antibody, clone 2B8D12 (antibody, IgG1, V domains shown)
VH: QVKLDETGGGLVQPGRPMKLSCVASGFTFSDYWMNWVRQSPEKGLEWVAQIRDKPYNYETFYSDSVKGRFTISRDDSKSSVYLQMNNLGAEDMGIYYCTGSFAYWGQGTLVTVSA
VL: DIQMTQSPASLSASEGETVTITCRASGNIHNYLAWYQQKQGKSPQLLVYNAKTLPDGVPSRVSGSGSGTQYSLKINNLQPEDFGNYYCQQYWSTPYTFGGGSRLEIKR
notes: Mouse hybridoma antibody; also called antibody CD37; CD37 antibody (2B8D12)
As to B1, the OD405 in assay [1] turned out to be 0.098 OD405. Also, the binding result in assay [2] is “no binding”.
